This note sets out measurements from PMC9177958, “Structures of nonsense-mediated mRNA decay factors UPF3B and UPF3A in complex with UPF2 reveal molecular basis for competitive binding and for neurodevelopmental disorder-causing mutation” (Nucleic Acids Research, 2022).

Common to all, as to experiment: fluorescence anisotropy; FA: 5 nM probe, 150 mM NaCl, 25 mM HEPES pH 7.45, 1 mM TCEP, 20 C; EMSA: 250 nM probe, 25 mM HEPES pH 7.45, 2 mM MgCl2, 150 mM NaCl, 0.5 mM TCEP, on ice
In general terms: Polarisation of emitted light reports the rotation of a fluorescent probe.

Data set [1] addresses T1, UPF3B-WT (human, UniProt Q9BZI7-2 1-470).
T1 sequence: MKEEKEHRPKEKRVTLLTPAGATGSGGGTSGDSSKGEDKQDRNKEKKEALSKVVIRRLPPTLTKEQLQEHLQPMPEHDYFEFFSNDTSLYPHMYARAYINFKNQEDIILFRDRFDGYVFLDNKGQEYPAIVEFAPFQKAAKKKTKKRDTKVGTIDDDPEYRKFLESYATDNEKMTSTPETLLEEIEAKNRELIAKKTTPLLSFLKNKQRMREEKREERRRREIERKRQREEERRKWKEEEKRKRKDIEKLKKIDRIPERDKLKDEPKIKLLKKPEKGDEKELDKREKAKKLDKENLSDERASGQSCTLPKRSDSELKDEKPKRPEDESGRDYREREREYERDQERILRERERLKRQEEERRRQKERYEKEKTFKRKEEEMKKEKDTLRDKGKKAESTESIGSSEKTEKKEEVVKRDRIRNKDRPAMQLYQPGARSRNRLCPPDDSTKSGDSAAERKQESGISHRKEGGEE
The note with it: protein: recombinant, tags: 6xHis removed by TEV.

Data set [2] deals with UPF3B-41-143 (RRM-L);UPF2-MIF4GIII (human;human?, UniProt Q9BZI7;Q9HAU5 41-143;761-1054, |). The following applies: protein: recombinant;recombinant; tags: 6xHis removed by TEV;6xHis removed by TEV; copies: 1;1; label: 5' HEX; single strand; 24-mer hairpin RNA.
Data set [3] addresses UPF2-MIF4GIII (UniProt Q9HAU5 761-1054). The following applies: protein: recombinant; tags: 6xHis removed by TEV; label: 5' HEX; single strand; 24-mer hairpin RNA.
The target of data set [4] is T2, UPF3B-41-143 (RRM-L) (human, UniProt Q9BZI7 41-143).
T2 sequence: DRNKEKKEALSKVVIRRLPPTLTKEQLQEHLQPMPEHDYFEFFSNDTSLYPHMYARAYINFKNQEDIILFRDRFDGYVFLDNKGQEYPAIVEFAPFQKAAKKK
The note with it: protein: recombinant; tags: 6xHis removed by TEV; label: 5' HEX on strand 1; blunt.

For data set [5], the target named is T3, UPF3B-146-417 (human, UniProt Q9BZI7-2 146-417).
T3 sequence: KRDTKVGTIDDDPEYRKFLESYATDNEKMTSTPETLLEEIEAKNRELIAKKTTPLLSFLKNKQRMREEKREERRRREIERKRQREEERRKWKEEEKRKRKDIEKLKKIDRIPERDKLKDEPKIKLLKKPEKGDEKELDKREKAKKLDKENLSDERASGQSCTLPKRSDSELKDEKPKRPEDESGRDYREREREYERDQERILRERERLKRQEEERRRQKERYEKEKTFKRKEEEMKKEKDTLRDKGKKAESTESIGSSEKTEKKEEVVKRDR
The note with it: protein: recombinant; tags: 6xHis removed by TEV; label: 5' HEX on strand 1; blunt.

Data set [6] concerns the target T4, UPF3B-146-256 (human, UniProt Q9BZI7 146-256).
T4 sequence: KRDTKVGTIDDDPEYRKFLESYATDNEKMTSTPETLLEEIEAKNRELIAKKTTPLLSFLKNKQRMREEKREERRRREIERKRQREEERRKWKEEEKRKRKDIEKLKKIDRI
The note with it: protein: recombinant; tags: 6xHis removed by TEV; label: 5' HEX on strand 1; blunt.

The target of data set [7] is T5, UPF3B-41-262 (human, UniProt Q9BZI7 41-262).
T5 sequence: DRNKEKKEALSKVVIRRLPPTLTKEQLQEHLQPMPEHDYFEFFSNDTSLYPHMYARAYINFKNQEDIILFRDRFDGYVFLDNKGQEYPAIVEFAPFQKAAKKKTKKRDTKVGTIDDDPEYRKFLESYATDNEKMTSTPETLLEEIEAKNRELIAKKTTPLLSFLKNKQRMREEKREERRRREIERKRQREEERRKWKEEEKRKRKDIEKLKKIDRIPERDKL
The note with it: protein: recombinant; tags: 6xHis removed by TEV; label: 5' HEX on strand 1; blunt.

The target in data set [8] is T6, UPF3B-41-214 (human, UniProt Q9BZI7 41-214).
T6 sequence: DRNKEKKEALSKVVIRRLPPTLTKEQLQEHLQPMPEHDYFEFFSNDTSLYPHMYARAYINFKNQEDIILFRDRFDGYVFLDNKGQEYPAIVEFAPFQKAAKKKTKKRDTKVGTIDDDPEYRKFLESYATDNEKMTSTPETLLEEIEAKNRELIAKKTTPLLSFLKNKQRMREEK
The note with it: protein: recombinant; tags: 6xHis removed by TEV; label: 5' HEX on strand 1; blunt.

Sequence of UPF3B-41-143 (RRM-L);UPF2-MIF4GIII (Q9HAU5 761-1054, one chain of several): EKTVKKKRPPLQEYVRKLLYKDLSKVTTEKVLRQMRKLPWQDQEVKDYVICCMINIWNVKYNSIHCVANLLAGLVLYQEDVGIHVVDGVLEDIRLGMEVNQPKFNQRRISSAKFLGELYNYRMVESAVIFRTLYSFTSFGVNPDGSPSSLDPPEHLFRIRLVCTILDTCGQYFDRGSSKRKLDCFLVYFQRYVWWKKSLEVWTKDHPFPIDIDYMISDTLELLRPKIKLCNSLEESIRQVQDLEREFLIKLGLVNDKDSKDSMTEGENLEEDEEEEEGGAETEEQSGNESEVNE
Sequence of UPF2-MIF4GIII (Q9HAU5 761-1054): as the sequence (Q9HAU5 761-1054, one chain of several) above

B1: 24mer ssRNA (ssRNA)
RNA: CACUGAUCUGACGCUGCACCUGGG
Broadly, the Kd is the free concentration of one partner at which half of the binding sites on the other are occupied at equilibrium, for simple one-to-one binding. Turning to B1, the Kd in data set [1] (label: 5' HEX, single strand, 24-mer hairpin RNA) is 30 nM; in data set [2], 620 nM; in data set [3], around 700 nM.

B2: 24mer dsRNA (dsRNA)
RNA 1: CCCUGAGCUGACGCAGCACCUGGG
RNA 2: CCCAGGUGCUGCGUCAGCUCAGGG
As to B2, the Kd in data set [1] (label: 5' HEX on strand 1, blunt) was 15 nM; in data set [4] it was 9200 nM; in data set [5] it was 280 nM; in data set [6], 1800 nM; in data set [7], 37 nM; in data set [8], 1200 nM.
